Experimental findings from the DeepSol protein solubility set are described below.

A short description of this data set: soluble on expression in E. coli; label from the status in PepcDB or PDB records.
Take “MVEQCPALKSRIKPMLSQKRLVYKPLGSFYQVLSAEAYTKHGLNVHGVVFDELHAQPNRDLYDVMLHGSGDARKQPLFFLITTAGTDRNSICWEVHQKAEDILQGRKIDPTFYPVIYSASDTDDWTSEKVWRKVNPSLGITVDIEKLRVACENAKQNPAEENLFRQLRLNQWVKQSVRWMPMDKWDKCAFPVDAEKLRGRTCYGGLDLSSTTDITAFVLVFPPLDESDKYQILTFFWIPEENIDQRVRRDHVPYDVWERQGFLYTTEGNVVHYGFIETFIEELGMKYNIKEIAFDRWGAIQMTQNLEALGFTVVPFGQGFKDMSPPTKELMKLTLEERIAHGGHPVLRWMMDNIYVKTDPAGNIKPDKEKSTERIDGAVALIMALDRALRHDGDERNGSIYDERGILFL”: the “soluble on expression in E. coli” value was “soluble”.
For “MVESWALTTPPIDIVNQYLFFIKRKTNYMATYYYALASQKFLLEEEPFEEVLKERRRDYGEKNKEIDFWQVIQPAFLNAPELAEAKAKAPEKNVAIVSTNKSFIVWVKLRLEYVLTGEFEAPSDAIPDPLASLDLEHHHHHH” the value was “not soluble”.
Regarding “MVGQIAKEMGLRAYIVGGVVRDILLGKEVWDVDFVVEGNAIELAKELARRHGVNVHPFPEFGTAHLKIGKLKLEFATARRETYPRPGAYPKVEPASLKEDLIRRDFTINAMAISVNLEDYGTLIDYFGGLRDLKDKVIRVLHPVSFIEDPVRILRALRFAGRLNFKLSRSTEKLLKQAVNLGLLKEAPRGRLINEIKLALREDRFLEILELYRKYRVLEEIIEGFQWNEKVLQKLYALRKVVDWHALEFSEERIDYGWLYLLILISNLDYERGKHFLEEMSAPSWVRETYKFMKFKLGSLKEELKKAKENYEVYRLLKPLHTSVLLLLMLEEELKEKIKLYLEKLRKVKLPKEKIEELKKQGLKGKELGERIEELKREIMNKIKLAAALE”, the “soluble on expression in E. coli” value is “soluble”.
For the sequence “MVHPALEFSDCYSDSPDFRERLKCYENELEKTNKFLKDVIKDGNNVINTFKEYSLAVQKFSQTLQSFQFDFIGDTLTDDEMNIAESFREFAGLLQDVEEARMMLVQNASDLLIKPLEKFRKEQIGVTKERRKKFEKESEKYYSQLDKHVNLSSKKKETQLQEADEQLDKERQAFYESSVEYVYQIQQVQEKKKFDVVEPVLAFLQSILTLNNLTVEMYTFRNKGTKCNTGEIPFQKVQFCTIQVDISTFMVHFCTFKLYFCTFKIP”, the “soluble on expression in E. coli” value is given as “not soluble”.
In the case of “MVIATDDLETTCPNCNGSGREEPEPCPKCLGKGVILTAQGSTLLHFIKKHIHE”, the “soluble on expression in E. coli” value is listed as “soluble”.
As to “MVIEESGNESEASVAPKRRRAPKGDMRRKALLDAATVVFARDGYSSASMREVALLAGITTVGLLHHFPNKEALLSALLERRDQRVTSRFQDMVTELTLDGFLKFLKLSMSFSVENADECQAALLMNTESLSPSHPACSWHRERFQMTHEHARGHLNALIEAGEVRADINVKALAQEIFSVMDGLQIQWLRSPDDVDVMAVFEVYVQRLGRDIKAHP”, the “soluble on expression in E. coli” value was “not soluble”.
In the case of “MVKFLRDLVKIPGESAEEGNKIARAKAEMEKLGFDKIDIDPQGNLLGYMGSGEKLIAFDGHMDTVGIGEMSNWKFDPYDGYETETEIGGRGTSDQEGGIVSAIYGAKIMKDLGLLSEKYTALVTVTVQEEDCDGLCWQYIIKEDGIRPEFVVSTEPTDGGIYRGQRGRMEIKVDVKGVSCHGSAPERGDNAIYKMADILQDVRALNNNGDTESTAIRGLVRMLDPKYNPEWQEARFLGRGTVTVSQIFHSSPSRCAVADGCTVSLDRRMTAGETWESCLEEIRNLPAVKKYGDDVTVSMYNYDRPSYTDLTYEIECYFPTWVIPENHDVTKALMETHKNLYGETRKGSVETVEMREERPLLDKWTFSTNGVSIMGRNGIPCIGFGPGAEAQAHAPNEKTWKDDLVRCAAVYAALPTVYCG”, the “soluble on expression in E. coli” value was “not soluble”.
The result for “MVKFMAIGTPLLKGSIKFLLLGSGELGKEVVIEAQRLGIECIAVDRYQNAPAMQVAHKSYVIDMKDYDALMAIIEREEPDYIVPEIEAINTDALIDAEKMGYTVIPTAEATKITMNRELIRRLAAEKLGLKTAKYEFADSLEELRDAVEKLGLPCVVKPIMSSSGKGQSVVRSEEDIEKAWKIAKEGARGIGNRVIVEEFINFDYEITLLTARTAEGTKFCEPIGHVQIDGDYHESWQPHNMSAELKEQAQDIAKKVTDALGGYGIFGVELFVKGDEVIFSEVSPRPHDTGMVTMITQEMSEFEIHVRAILGLPVSTKLIHPGASHVIKAEINKYAPKYHIEDALKVPNTKLRLFGKPNAKVGRRMGVALAYADSVEKARELAEKCAHAVRIE” reads “soluble”; that for “MVKHIWDSERAAQLPKGVEELVYRSNLIGSDRTVCNWGGGNTSMKTTEKDFRGREIEVMWVKGSGSDLATMKAHNFSGLKLDDIRPLIKRDQMPDEEMVDYLSHCMIDSKHPRPSIETLLHAFLPYKHVDHTHPDAIISICCADNGKQIAEDIYGNRFVWVPYVRPGFTLSKMIAEGVANNPHAELVLMEKHGLVTWGETSETCYQKTISIIQEAEQYINDRINQHEVFGGKRYQPLPEDKRKQILAGIMPVIRGAVSEEKKMILSYDDHDDVLEFVNSVQAPALSQIGAACPDHLVHTKRVPLYIDWNPETQDVHKLADLIKSGVETFTSEYQAYFTRNQQDGDQIFESAPRVILIPGIGMVNTGKSYAMSKVSGALYRRAIAVMKGATALGQFVSLHENESYHVEYWPLELYKLTLAPPEAEFSRKVALITGGAGGIGSAACRRFAAEGGHVIVADLNIEGAQKIAGEINDAYGKGRAMAVKMDVTKEEDVQSAFERAALAYGGIDIVVNNAGLATSSPFDETSLKEWNLNMNVLGTGYFLVAREAFKQMKHQNRGGSMVFVGSKNSVYAGKNASAYSSVKALETHLARCIAAEGGEFGIRVNSVLPDAVLQGSAIWGSSWREERAAAYGIEPDQLEEHYRKRTALLVNIYPEDIAEAIAFFASSKAEKTTGCMITVDGGVPAAFTR”, “not soluble”.
For “MVKLFIGNLPREATEQEIRSLFEQYGKVLECDIIKNYGFVHIEDKTAAEDAIRNLHHYKLHGVNINVEASKNKSKASTKLHVGNISPTCTNQELRAKFEEYGPVIECDIVKDYAFVHMERAEDAVEAIRGLDNTEFQGKRMHVQLSTSRLRTAPGMGDQSGCYRCGKEGHWSKECPVDRTGRVADFTEQYNEQYGAVRTPYTMGYGESMYYNDAYGALDYYKRYRVRSYEAVAAAAAASAYNYAEQTMSHLPQVQSTTVTSHLNSTSVDPYDRHLLPNSGAAATSAAMAAAAATTSSYYGRDRSPLRRAAAMLPTVGEGYGYGPESELSQASAATRNSLYDMARYEREQYVDRARYSAF” the value was “soluble”; for “MVKNGRDPPERNFYCTEKEETAPPLMNIFDDFKSQIEREIMTIFLKTAYESLLSIAISTEIIVPEDETRSLEKEVIKLMKLMKLMNLLEPLGNRVSRLMGLVRNAEEHRERIVKRNQESDVREIFKIAASRTKTRFHKALQKESSSSSMKWGFTEAKDEVLSLGIRLTHALIKLTLLRVKKNDREKQLLLRDWIFDESYEKQSALMYLLDYLLYKAEEFAASVVVEESGNDHHRQHILEEDRIGDDILTRISEAIFILQLLAMNLSRNVLTERDLIATNDQLLRCVRDVKFVESTIVVLMKGRSLKLKHKGKQSLLMKERTETIFWAKVNAELNKCWGESFWKYVEAARHLEAVVSSQQIVYTLCKLFVFGFES”, “not soluble”.
For the sequence “MVKVGYIQMEPKILELDKNYSKAEKLIKEASKEGAKLVVLPELFDTGYNFESREEVFDVAQQIPEGETTTFLMELARELGLYIVAGTAEKSGNYLYNSAVVVGPRGYIGKYRKIHLFYREKVFFEPGDLGFKVFDIGFAKVGVMICFDWFFPESARTLALKGAEIIAHPANLVMPYAPRAMPIRALENRVYTITADRVGEERGLKFIGKSLIASPKAEVLSIASETEEEIGVVEIDLNLARNKRLNDMNDIFKDRREEYYFR”, the “soluble on expression in E. coli” value was “soluble”.
On to “MVLALITLVVSAFLIPEVLADPCGDSNWRYFPQTNSCYKLIDENLPWTIAEFKCLFQGAHHVSIDSPEENQFVHELSRWSEIWTGAAFFGKDQHYVNSDGSRYGNFENWKDGRKPPMNRARRCIKMDGNGEWFQSCCKKKTFTICEKKAAYSASSYSGSNNSVNGFRFMRHRS”, for which the “soluble on expression in E. coli” value is reported as “not soluble”.
Consider “MVLFSEDHIQETRRRGRIEVICGSMFSGKTEELIRRMKRAKFARQRVEIFKPAIDTRYSEEDVVSHDSHSIASTPIDSSASILLFTSEIDVVGIDEAQFFDDGLIDVCRQLANNGIRVIIAGLDMDFKGNPFGPMPQLCAIADEVSKVHAICVKCGDLASFSHRTVKNDKQVLLGETAEYEPLCRECYLRARGEDGQKILEHHHHHH”, for which the “soluble on expression in E. coli” value is given as “soluble”.
As for “MVLFVDFLLEWLEMMRTRVRETTYASYNSGIRQSIIPYFMDKKLTLTDIEENPKYLQDFYQHELSKGLSPNSVLRRHANIRKALQHAFHLGLIKSNPADRIERPKKQLEHHHHHH”, the “soluble on expression in E. coli” value is listed as “not soluble”.
Regarding “MVLLKEYRVILPVSVDEYQVGQLYSVAEASKNETGGGEGVEVLVNEPYEKDDGEKGQYTHKIYHLQSKVPTFVRMLAPEGALNIHEKAWNAYPYCRTVITNEYMKEDFLIKIETWHKPDLGTQENVHKLEPEAWKHVEAIYIDIADRSQVLSKDYKAEEDPAKFKSIKTGRGPLGPNWKQELVNQKDCPYMCAYKLVTVKFKWWGLQNKVENFIHKQEKRLFTNFHRQLFCWLDKWVDLTMDDIRRMEEETKRQLDEMRQKDPVKGMTADD”, the “soluble on expression in E. coli” value was “soluble”.
With “MVLLLIVNKYWKVNDMKNEIQKNMDKYNPWHEDDFESYEDIARDVSLTTDKTFIEHYLLEVYSEENGHFDQENVHAMIEEIKNAI”, the “soluble on expression in E. coli” value was “not soluble”.
Regarding “MVLNSMRLFYILSQRDASSKNFNSSIYSRRSSRNSGCPGALFRSGRAVPFERVVGQQYFLKAYAILHSLNICRVEAGYIFDRKKTKFQDFLRFGRAGMASGVGGGSEGGPDDVKNSYIRVNGEPEIVYQ”, the “soluble on expression in E. coli” value is reported as “not soluble”.
Consider “MVNPQAGVVVGYWHNWCGGAGYKGGVAPCVSLAQVNPQYNVVDISFMKVYGATGSIPTFKLDPAVGLSEAQFIDQIGELNRQGRAVLIALGGADAHIELRKGQEHDLANEIIRLVEKYGFDGLDIDLEQAAVTAADNQIVIPAALRIVKDHYRKQQKNFLITMAPEFPYLTTGGKYVPYINALEGYYDWINPQFYNQGGDGIYIEGIGWIAQNNDSLKQEFIYHISDALVNGTNGFTKIPHDKLVFGIPTNIDAAATGYVSDPNALFAAFEQLKNQGQPLRGLMTWSVNWDMGKNAAGQAYNESFIKAYGPFIHGQDITPPEPENGKPIFSGLSNTRVKLGGTFNAMDGVSAYDEEDKDLTQQIQVTGDVNTNQIGLYPLTYKVTDSDNNTTEQVRTVEVYNTKPELSGVSNTTIILATPFDAMAGVSATDAEDGNLTPNIRVEGEVDSNRVGQYQLTYSVSDSAGEQTRAVRLVTVQEQGAVCENLWSASKIYLGGDTVNYAGKIWLAGWWTQGEQPDLAGEWGVWKSKGDSDCDSGLPPVITPNFTVSGLASSYILNQGQVSINFNVNTNQAMELTANLTQEQRILASTTATINGNGAMVLQAESLEAGAYQVVISAKDKNLTQSYNVSLVQGDDGSEPVEYPAYVAGNQYQAGNIVTNAGGVYQCRPWPNSGWCSGSAPYYAPGTGSAWQDAWTKHLEHHHHHH”, for which the “soluble on expression in E. coli” value is “soluble”.
For “MVNRCFFFNRRICFMELFLLRHGKPDIRRSMAIRSVDMYSWIGEYDAAGILDSPDASTVAASEGKFIVSSPMPRALESVAALGLEPDIIIDELHEAPLPVFNIPLLKLTPLVWAALFRIFWMAGGSGGVETFSSVKIRAKLVSCELDKMAETHGSVLSVGHGFMNALVARELQKAGWKRQKVGPSGYWSGIKLVRLEHHHHHH” the value was “soluble”.
